From patent US20260263521A1 (AIMED BIO, published 2026)

Columns and labels:
[1] = target: T1, monkey CD200RLa (Sino Biological, 11576-C02H) recombinant protein (monkey (cyno), UniProt A0A2K5W6R0 30-246); assay: ELISA, plate-bound monkey CD200RLa (2 ug/mL), antibody 0.0192-300 nM, O.D 450 nm; panel 'recombinant cynomolgus CD200RLa/Fc'
T1 construct: Bought; construct not described; also called cyno CD200RLa
T1 sequence: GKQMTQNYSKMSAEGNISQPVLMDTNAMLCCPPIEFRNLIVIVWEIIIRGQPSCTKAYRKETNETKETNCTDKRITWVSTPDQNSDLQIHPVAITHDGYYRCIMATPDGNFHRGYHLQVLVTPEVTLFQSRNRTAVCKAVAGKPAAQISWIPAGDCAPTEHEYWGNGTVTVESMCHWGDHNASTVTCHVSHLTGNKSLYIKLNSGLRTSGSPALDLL
Procedure: 96-well plates were coated with human CD200RLa (Sino Biological, 11620-H08H) and monkey CD200RLa (Sino Biological, 11576-C02H) recombinant proteins at a concentration of 2 μg/mL at 4° C. for 16 hours, and blocked with 3% skim milk for 1 hour. […] Color was developed with a TMB substrate solution (Thermo Scientific, 34029, 1-Step™ Ultra TMB-ELISA Substrate Solution). The color reaction was stopped with stop solution (Invitrogen, SS04, ELISA Stop Solution).

[2] = target: T2, human CD200R1 expressed on cells (Jurkat-CD200R1, U937-CD200R1, HH cells) (human, UniProt Q8TD46 25-348); assay: flow cytometry, Jurkat-CD200R cells
T2 construct: whole, on cells; also called HH (CRL-2105); cell surface-expressed CD200R1
T2 sequence (looked up): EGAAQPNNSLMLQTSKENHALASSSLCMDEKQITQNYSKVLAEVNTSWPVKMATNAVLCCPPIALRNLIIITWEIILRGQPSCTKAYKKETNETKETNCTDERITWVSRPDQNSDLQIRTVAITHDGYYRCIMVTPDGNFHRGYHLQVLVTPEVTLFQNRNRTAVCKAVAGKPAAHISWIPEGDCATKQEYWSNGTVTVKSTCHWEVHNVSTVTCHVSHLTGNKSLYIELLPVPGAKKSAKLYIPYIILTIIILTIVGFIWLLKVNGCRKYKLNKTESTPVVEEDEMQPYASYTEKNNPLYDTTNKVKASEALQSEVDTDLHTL
Procedure: (§1) Two additional wells were treated with 10 μl of mouse IgG1K (BD, #555751) and 5 μl of commercial CD200R1 antibody (Biolegend, #329308) to determine CD200R1 expression on the cell line surface for cell quality control.
(§2) The antibodies were serially diluted 10-fold from a maximum concentration of 100 nM to 10 nM, 1 nM, […], and were added to the pre-seeded cells. After reaction for 1 hour at 4° C., the cells were treated with Alexa-647 goat anti-human IgG (H+L) cross-adsorbed secondary antibody (Invitrogen, #A21445) and incubated for an additional 30 minutes at 4° C. After washing twice with FACS buffer, flow cytometry was performed using a Novocyte Flow cytometer (Agilent). Using GraphPad Prism software, the EC₅₀ was determined using a nonlinear graph model of log (agonist) vs. response-variable slope, as shown in Table 32.

[3] = target: T2, human CD200R1 expressed on cells …; assay: flow cytometry, HH cells
Procedure: as §1, §2

[4] = target: T3, human CD200R1 with dual His-tags (human, UniProt Q8TD46 25-265); assay: SPR (Biacore CM5), His-tagged antigen captured by anti-histidine antibody, antibody as analyte, 1:1 Langmuir fit
T3 construct: Captured on the SPR chip by an anti-histidine antibody; also called hCD200R1-his; not shown: dual His-tags
T3 sequence (looked up): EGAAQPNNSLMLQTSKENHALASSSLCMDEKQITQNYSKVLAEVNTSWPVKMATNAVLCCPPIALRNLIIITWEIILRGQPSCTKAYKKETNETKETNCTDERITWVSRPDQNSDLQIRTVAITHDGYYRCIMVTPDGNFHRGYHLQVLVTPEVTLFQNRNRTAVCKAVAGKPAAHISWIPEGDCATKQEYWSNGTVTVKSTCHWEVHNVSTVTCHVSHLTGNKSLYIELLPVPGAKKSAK
Procedure: (§3) For the experiment, 30 μg/mL of an anti-histidine antibody was conjugated to a CM5 biacore chip via an amine bond while allowing to flow at 10 μl/min (10,000 RU). Then, 0.25 μg/mL of human or cynomolgus CD200R1 with dual His-tags was captured onto the completed chip for 60 seconds, and the binding ability of each antibody was analyzed. All experiments were performed by association of antibodies for 120 seconds and dissociation of antibodies for 600 seconds. The resulting graphs were fitted using a 1:1 Langmuir binding kinetic model (FIG. 16), and the kinetics of each antibody were calculated.

[5] = target: T4, cynomolgus CD200R1 with dual His-tags (cynomolgus, UniProt G7NZT0 25-266); assay: as above
T4 construct: Captured on the SPR chip by an anti-histidine antibody; also called CCD200R1-his; cCD200R1-his; not shown: dual His-tags
T4 sequence: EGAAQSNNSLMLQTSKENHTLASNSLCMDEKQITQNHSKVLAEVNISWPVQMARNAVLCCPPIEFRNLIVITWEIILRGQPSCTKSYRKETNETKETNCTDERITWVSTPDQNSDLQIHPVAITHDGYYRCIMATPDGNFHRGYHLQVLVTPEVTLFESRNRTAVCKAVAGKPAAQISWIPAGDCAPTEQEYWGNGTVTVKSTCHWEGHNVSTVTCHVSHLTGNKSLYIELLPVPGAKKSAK
Procedure: as §3

[6] = target: T2, human CD200R1 expressed on cells …; assay: cell-based or functional assay

binding result [1]: no binding (tested: 300 nM) | Kd [5]: 2080 pM | koff [5]: 0.0117 s⁻¹ | kon [5]: 5.63e+06 M⁻¹ s⁻¹
B1: P001009 (IgG) (antibody, V domains shown)
VH: EVQLLESGGGLVQPGGSLRLSCAASGFTFSSYDMSWVRQAPGKGLEWVSWISHGGGSIYYADSVKGRFTISRDNSKNTLYLQMNSLRAEDTAVYYCARDAPAYSAPLFDYWGQGTLVTVSS
VL: QSVLTQPPSASGTPGQRVTISCSGSSSNIGNNAVNWYQQLPGTAPKLLIYYDSNRPSGVPDRFSGSKSGTSASLAISGLRSEDEADYYCAAWDDSLSGYVFGGGTKLTVL
notes: also called P001009 WT; P001009 wt
EC50 [2]: 220 pM | EC50 [3]: 190 pM | Kd [4]: 47.5 pM | koff [4]: 0.000134 s⁻¹ | kon [4]: 2.81e+06 M⁻¹ s⁻¹ | EC50 (nM), degree of signal transduction by the Dok2 protein [6]: 1.57 nM
